According to US20240344124, “Quantum Dot-Enrichment of CRISPR-Associated (Cas) Proteins for Environmental RNA Enrichment” (The Government of the United States of America, as …, published 2024):

Target: T1, dLwaCas13a (LwaC2c2 R474A/R1046A double mutant); the text does not say whether the double or the quad mutant … (Leptotrichia wadei)
T1 chain: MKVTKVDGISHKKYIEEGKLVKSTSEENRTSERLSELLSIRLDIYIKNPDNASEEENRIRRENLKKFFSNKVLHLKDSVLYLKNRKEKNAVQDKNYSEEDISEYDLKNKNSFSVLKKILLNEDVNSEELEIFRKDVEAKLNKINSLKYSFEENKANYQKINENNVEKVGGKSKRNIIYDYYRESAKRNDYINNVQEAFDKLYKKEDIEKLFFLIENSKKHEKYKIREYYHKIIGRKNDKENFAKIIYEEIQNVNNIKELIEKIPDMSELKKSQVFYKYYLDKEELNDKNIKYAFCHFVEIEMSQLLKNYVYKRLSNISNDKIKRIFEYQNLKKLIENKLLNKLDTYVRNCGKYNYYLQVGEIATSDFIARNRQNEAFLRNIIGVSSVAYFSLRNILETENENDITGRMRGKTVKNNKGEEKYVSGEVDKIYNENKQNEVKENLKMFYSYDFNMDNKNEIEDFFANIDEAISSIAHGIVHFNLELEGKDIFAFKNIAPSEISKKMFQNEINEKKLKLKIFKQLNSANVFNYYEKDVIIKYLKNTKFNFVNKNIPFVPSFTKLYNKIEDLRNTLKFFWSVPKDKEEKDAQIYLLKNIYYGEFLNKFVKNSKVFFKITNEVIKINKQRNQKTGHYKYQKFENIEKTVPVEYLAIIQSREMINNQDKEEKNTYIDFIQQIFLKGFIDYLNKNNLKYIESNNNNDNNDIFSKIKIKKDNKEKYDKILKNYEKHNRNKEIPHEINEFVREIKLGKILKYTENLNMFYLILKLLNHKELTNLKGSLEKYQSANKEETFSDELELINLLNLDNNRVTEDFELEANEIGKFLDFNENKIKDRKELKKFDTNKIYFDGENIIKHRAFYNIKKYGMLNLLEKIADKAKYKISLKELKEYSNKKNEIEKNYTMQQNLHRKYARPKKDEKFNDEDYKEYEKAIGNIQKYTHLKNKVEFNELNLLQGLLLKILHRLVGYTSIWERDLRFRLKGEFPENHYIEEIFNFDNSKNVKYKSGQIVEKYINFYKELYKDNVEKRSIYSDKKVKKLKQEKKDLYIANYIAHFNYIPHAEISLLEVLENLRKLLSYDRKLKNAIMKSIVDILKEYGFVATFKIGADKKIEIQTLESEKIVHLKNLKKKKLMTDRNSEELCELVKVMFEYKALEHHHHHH
Assay: pulldown; […]; 50 mM Tris pH 8, NaCl, 10 mM MgCl2, 37 C; […]
Settings: tags: polyhistidine tag; GenScript

B1: cr7 crRNA ; shortened lcrV target RNA (237 nt) (ssRNA ; ssRNA)
RNA 1: GGGGAUUUAGACUACCCCAAAAACGAAGGGGACUAAAACAAUAUCUAUAUUUUUAUCUUUGACUAAC
RNA 2: AUUGAGGAUCUAGAAAAAGUUAGGGUGGAACAACUUACUGGUCAUGGUUCUUCAGUUUUAGAAGAAUUGGUUCAGUUAGUCAAAGAUAAAAAUAUAGAUAUUUCCAUUAAAUAUGAUCCCAGAAAAGAUUCGGAGGUUUUUGCCAAUAGAGUAAUUACUGAUGAUAUCGAAUUGCUCAAGAAAAUCCUAGCUUAUUUUCUACCCGAGGAUGCCAUUCUUAAAGGCGGUCAUUAUGAC
  binding result: binds
